Data reported in publication PMC11579972 (Small (Weinheim an Der Bergstrasse, Germany), 2024).

Legend:
[1] = molecular target: T1, An‐FD, Pro‐Asp‐(Phe‐Asp)5‐Pro; test: MST
T1 peptide: PDFDFDFDFDFDP

[2] = molecular target: T2, Sc‐FD (a scrambled version of An‐FD); test: ITC
T2 peptide: DFFPDDPFDFFDD

[3] = molecular target: T1, An‐FD, Pro‐Asp‐(Phe‐Asp)5‐Pro; test: ITC
[4] = molecular target: T3, An‐FD, Pro‐Asp‐(Phe‐Asp)5‐Pro; test: other fluorescence titration
T3 chain: PDFDFDFDFDFDP

PKFKFKFKFKFKP [Cat‐FK, Pro‐Lys‐(Phe‐Lys)5‐Pro]
Kd [1]: 50 ± 8 µM
dH [2]: 1.43 ± 2.87 kcal/mol
Kd [3]: ~40 µM
dH [3]: -8.37 kcal/mol
stoichiometry N [3]: 1.12
critical coassembly concentration (CCC) at 25% An-FD [4]: 0.096, 0.058, and 0.14 mM
critical coassembly concentration (CCC) at 50% An-FD [4]: 0.096, 0.058, and 0.14 mM
critical coassembly concentration (CCC) at 75% An-FD [4]: 0.096, 0.058, and 0.14 mM
